Results taken from paper PMC8760513, “Mechanistic details of the actinobacterial lyase-catalyzed degradation reaction of 2-hydroxyisobutyryl-CoA” (The Journal of Biological Chemistry, 2021).

B1: 2-hydroxyacyl-CoA lyase from Actinomycetospora chiangmaiensis (WT AcHACL) (enzyme)
chain: MADRQDAERSGAGPARQSVPVASLVAEFLQEHGVDRVFGLQGGHIQPIWDQLARRGVRIVDVRDEGSAVHMAHAHTELTGQTAVAMVTAGPGVTNTVTAVANASVSRIPLLVIGGCPPIPQSNMGPLQDIPHTAILEPITRLARTLRSADQVLREFDEAWARASGDRGEPGPVYLEIPTDVLRRDVPPALQMREHLRAKPKRRPQPHPDDVAAVADLIRAAEKPAIISGRGARTTDGTDLVRLLDASGAAYLDTQESRGLVPDSHPAAVGSARSAVMRDTDLLITVGRQLDYQLGMGSPAVFPHAKVVRIADTASELIDNRRGEVEILAEPGAALAAIADALKDHTPDTSWRDELKAKHRKRAEDYRQALHSTENGADGHIHPNRIFGALDALDGDVLDLGETIMIADGGDLLSFGRLGITKARRYLDAGAFGCLGVATPFAIGAALAYPDRPVVAVTGDGAFGITATEIDTAVRHDAKIVVIVSNNRAWNIERYDQAENYGLVVGTDLADSDYAGVARAFGAHGERVTDPAELEGAIRRALANAPALVDVVTTQDAASPDSGKGLGFVPDYQALTPWNDAEVARRQEGI
notes: 2-hydroxyacyl-CoA lyase (AcHACL) of Actinomycetospora chiangmaiensis DSM 45062; residues up to 590 are named in the text; Crystallised with 2-HIB-CoA and dzThDP (7PT1) or ThDP (7PT4); also called actinobacterial 2-hydroxyacyl-CoA lyase
B2: AcHACL E493A mutant (enzyme)
chain: MADRQDAERSGAGPARQSVPVASLVAEFLQEHGVDRVFGLQGGHIQPIWDQLARRGVRIVDVRDEGSAVHMAHAHTELTGQTAVAMVTAGPGVTNTVTAVANASVSRIPLLVIGGCPPIPQSNMGPLQDIPHTAILEPITRLARTLRSADQVLREFDEAWARASGDRGEPGPVYLEIPTDVLRRDVPPALQMREHLRAKPKRRPQPHPDDVAAVADLIRAAEKPAIISGRGARTTDGTDLVRLLDASGAAYLDTQESRGLVPDSHPAAVGSARSAVMRDTDLLITVGRQLDYQLGMGSPAVFPHAKVVRIADTASELIDNRRGEVEILAEPGAALAAIADALKDHTPDTSWRDELKAKHRKRAEDYRQALHSTENGADGHIHPNRIFGALDALDGDVLDLGETIMIADGGDLLSFGRLGITKARRYLDAGAFGCLGVATPFAIGAALAYPDRPVVAVTGDGAFGITATEIDTAVRHDAKIVVIVSNNRAWNIARYDQAENYGLVVGTDLADSDYAGVARAFGAHGERVTDPAELEGAIRRALANAPALVDVVTTQDAASPDSGKGLGFVPDYQALTPWNDAEVARRQEGI
notes: 2-hydroxyacyl-CoA lyase (AcHACL) of Actinomycetospora chiangmaiensis DSM 45062 with E493A, made by site-directed mutation of the WT construct in pASG-IBA43; it says that the overall structure is identical to the WT (tetramer); also called alanine mutant; source: same protocol as WT)
B3: AcHACL E493Q mutant (enzyme)
chain: MADRQDAERSGAGPARQSVPVASLVAEFLQEHGVDRVFGLQGGHIQPIWDQLARRGVRIVDVRDEGSAVHMAHAHTELTGQTAVAMVTAGPGVTNTVTAVANASVSRIPLLVIGGCPPIPQSNMGPLQDIPHTAILEPITRLARTLRSADQVLREFDEAWARASGDRGEPGPVYLEIPTDVLRRDVPPALQMREHLRAKPKRRPQPHPDDVAAVADLIRAAEKPAIISGRGARTTDGTDLVRLLDASGAAYLDTQESRGLVPDSHPAAVGSARSAVMRDTDLLITVGRQLDYQLGMGSPAVFPHAKVVRIADTASELIDNRRGEVEILAEPGAALAAIADALKDHTPDTSWRDELKAKHRKRAEDYRQALHSTENGADGHIHPNRIFGALDALDGDVLDLGETIMIADGGDLLSFGRLGITKARRYLDAGAFGCLGVATPFAIGAALAYPDRPVVAVTGDGAFGITATEIDTAVRHDAKIVVIVSNNRAWNIQRYDQAENYGLVVGTDLADSDYAGVARAFGAHGERVTDPAELEGAIRRALANAPALVDVVTTQDAASPDSGKGLGFVPDYQALTPWNDAEVARRQEGI
notes: 2-hydroxyacyl-CoA lyase (AcHACL) of Actinomycetospora chiangmaiensis DSM 45062 with E493Q, made by site-directed mutation of the WT construct in pASG-IBA43; it says that the overall structure is identical to the WT (tetramer); source: same protocol as WT)

Molecular target: the molecule itself
Assay: crystal structure; sitting drop co-crystals of 10 mg/ml protein with 1 mM 2-HIB-CoA, 5 mM ADP, 5 mM MgCl2 and 5 mM dzThDP (or ThDP for the intermediate/product state); tetramer described as a dimer of dimers

Protein	stoichiometry N	binding result
B1	4	
B2		binds
B3		binds
